# Experimental data: patent US20030104352
# Target: T1, LtrA (L1.LtrB group II intron-encoded protein) (Lactococcus lactis) (UniProt P0A3U0)
# T1 sequence: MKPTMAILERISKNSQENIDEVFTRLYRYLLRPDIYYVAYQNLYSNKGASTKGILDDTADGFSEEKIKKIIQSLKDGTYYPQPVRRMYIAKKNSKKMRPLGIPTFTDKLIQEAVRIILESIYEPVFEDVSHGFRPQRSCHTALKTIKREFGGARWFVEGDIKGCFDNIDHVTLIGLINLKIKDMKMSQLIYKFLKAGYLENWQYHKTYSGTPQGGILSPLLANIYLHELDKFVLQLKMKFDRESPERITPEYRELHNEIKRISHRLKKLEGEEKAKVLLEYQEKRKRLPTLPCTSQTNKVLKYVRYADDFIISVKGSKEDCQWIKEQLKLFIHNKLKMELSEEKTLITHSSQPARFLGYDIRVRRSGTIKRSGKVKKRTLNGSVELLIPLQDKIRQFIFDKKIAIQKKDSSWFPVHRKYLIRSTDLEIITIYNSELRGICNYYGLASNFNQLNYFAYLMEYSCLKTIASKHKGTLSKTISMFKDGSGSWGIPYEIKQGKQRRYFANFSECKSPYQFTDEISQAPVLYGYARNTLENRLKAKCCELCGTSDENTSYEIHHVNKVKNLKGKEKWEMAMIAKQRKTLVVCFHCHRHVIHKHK
# Test: cell_activity
# Conditions: for binding signal (mutability value): doped target pool selection; for activity: after IPTG induction
substance,measurement,setting,value
L1.LtrB deltaORF intron RNA ; L1.LtrB DNA target -30 to +15,activity (% TetR colonies),"100 uM IPTG, ~70% without IPTG",100
L1.LtrB deltaORF intron RNA ; L1.LtrB target C-7A,binding signal (mutability value),"[24 (-7 C>A)], preferred over wild type",3.83
L1.LtrB deltaORF intron RNA ; L1.LtrB target G-21A,binding signal (mutability value),[10 (-21 G>A)],-0.6
L1.LtrB deltaORF intron RNA ; L1.LtrB target G-21C,binding signal (mutability value),[10 (-21 G>C)],-0.9
L1.LtrB deltaORF intron RNA ; L1.LtrB target G-21T,binding signal (mutability value),"[10 (-21 G>T)], absent from active sites",-1
retargeted L1.LtrB intron HIV1-4021s ; HIV-1 proviral target 4021s,activity,,> 60 % mobility
retargeted L1.LtrB intron HIV1-4069s ; HIV-1 pol target 4069s,activity,also inserted in human cells (p89),> 60 % mobility
